Biological target: immobilized fibrin (UniProt P02679)
Test: cell-free flow-based adhesion assay of protein-coated microspheres; 10-µm polystyrene microspheres coated with immunopurified CD44 or human IgG (2×10^6/ml in DPBS, 0.1% BSA) perfused for 5 min at 37°C over immobilized fibrin in a parallel plate flow chamber, 0.25 to 0.5 dyn/cm^2; interacting microspheres counted by phase-contrast videomicroscopy

## CD44s immunopurified from PDGF-treated HL60 human myeloid cells (from UniProt P16070-12 21-361) (receptor)
  reduction of binding relative to CD44s from untreated HL60 cells: 30%

Reference: paper PMC3466257
